# Where “and” joins values, the source holds several entries; their conditions need not be identical. Equal entries are not always repeated.
# How the values were obtained:
# [1] = target: T1, Full-length human calmodulin (CaM) (human, UniProt P0DP23 1-149); test: ITC
# [2] = target: T1, Full-length human calmodulin (CaM); test: NMR titration
binder,measurement,setting,value
"SPANSFHFKEAWKHAIQKAKHMPDPWA [eEF-2KCBD, calmodulin-binding segment of human eEF-2K (residues 74-100)]",Kd,[1],153 nM and 137 nM
same,dH,[1],-16.6 kcal/mol
same,Kd,[2],36000 nM

# — paper PMC5014583 (Structure (London, England : 1993), 2016)
